# Assay results: IntAct's records for PubMed 19264781
# B1: Protein Vpx (Simian immunodeficiency virus (isolate PBj14/BCL-3)), P19508 (parent)
# chain: MSDPRERIPPGNSGEETIGEAFDWLDRTVEEINRAAVNHLPRELIFQVWRRSWEYWHDEMGMSVSYTKYRYLCLIQKAMFMHCKKGCRCLGGEHGAGGWRPGPPPPPPPGLA
# B2: Protein Vpx (Human immunodeficiency virus type 2 subtype A (isolate Ghana-1)), P18045 (parent)
# chain: MTDPRERVPPGNSGEETIGEAFEWLDRTIEALNREAVNHLPRELIFQVWQRSWRYWHDDQGMSPSYTKYRYLCLMQKAVFIHFKRGCTCLGGGHGPGGWRSGPPPPPPPGLV
# Variants of: B1
# Details: with dcaf1_human DCAF1, Q9Y4B6
row,Variant,effect of a mutation on the interaction
1,MSDPRERIPPGNSGEETIGEAFDWLDRTVEEINRAAVNHLPRELIFQVWRRSWEYWHDEMGMSVSYTKYRYLCLIQAAMFMHCKKGCRCLGGEHGAGGWRPGPPPPPPPGLA,disrupting interaction

# Variants of: B1
# Details: with dcaf1_human DCAF1, Q9Y4B6
# Remark: another data set of the same source
# Target sequence in this assay (Q9Y4B6 whole entry): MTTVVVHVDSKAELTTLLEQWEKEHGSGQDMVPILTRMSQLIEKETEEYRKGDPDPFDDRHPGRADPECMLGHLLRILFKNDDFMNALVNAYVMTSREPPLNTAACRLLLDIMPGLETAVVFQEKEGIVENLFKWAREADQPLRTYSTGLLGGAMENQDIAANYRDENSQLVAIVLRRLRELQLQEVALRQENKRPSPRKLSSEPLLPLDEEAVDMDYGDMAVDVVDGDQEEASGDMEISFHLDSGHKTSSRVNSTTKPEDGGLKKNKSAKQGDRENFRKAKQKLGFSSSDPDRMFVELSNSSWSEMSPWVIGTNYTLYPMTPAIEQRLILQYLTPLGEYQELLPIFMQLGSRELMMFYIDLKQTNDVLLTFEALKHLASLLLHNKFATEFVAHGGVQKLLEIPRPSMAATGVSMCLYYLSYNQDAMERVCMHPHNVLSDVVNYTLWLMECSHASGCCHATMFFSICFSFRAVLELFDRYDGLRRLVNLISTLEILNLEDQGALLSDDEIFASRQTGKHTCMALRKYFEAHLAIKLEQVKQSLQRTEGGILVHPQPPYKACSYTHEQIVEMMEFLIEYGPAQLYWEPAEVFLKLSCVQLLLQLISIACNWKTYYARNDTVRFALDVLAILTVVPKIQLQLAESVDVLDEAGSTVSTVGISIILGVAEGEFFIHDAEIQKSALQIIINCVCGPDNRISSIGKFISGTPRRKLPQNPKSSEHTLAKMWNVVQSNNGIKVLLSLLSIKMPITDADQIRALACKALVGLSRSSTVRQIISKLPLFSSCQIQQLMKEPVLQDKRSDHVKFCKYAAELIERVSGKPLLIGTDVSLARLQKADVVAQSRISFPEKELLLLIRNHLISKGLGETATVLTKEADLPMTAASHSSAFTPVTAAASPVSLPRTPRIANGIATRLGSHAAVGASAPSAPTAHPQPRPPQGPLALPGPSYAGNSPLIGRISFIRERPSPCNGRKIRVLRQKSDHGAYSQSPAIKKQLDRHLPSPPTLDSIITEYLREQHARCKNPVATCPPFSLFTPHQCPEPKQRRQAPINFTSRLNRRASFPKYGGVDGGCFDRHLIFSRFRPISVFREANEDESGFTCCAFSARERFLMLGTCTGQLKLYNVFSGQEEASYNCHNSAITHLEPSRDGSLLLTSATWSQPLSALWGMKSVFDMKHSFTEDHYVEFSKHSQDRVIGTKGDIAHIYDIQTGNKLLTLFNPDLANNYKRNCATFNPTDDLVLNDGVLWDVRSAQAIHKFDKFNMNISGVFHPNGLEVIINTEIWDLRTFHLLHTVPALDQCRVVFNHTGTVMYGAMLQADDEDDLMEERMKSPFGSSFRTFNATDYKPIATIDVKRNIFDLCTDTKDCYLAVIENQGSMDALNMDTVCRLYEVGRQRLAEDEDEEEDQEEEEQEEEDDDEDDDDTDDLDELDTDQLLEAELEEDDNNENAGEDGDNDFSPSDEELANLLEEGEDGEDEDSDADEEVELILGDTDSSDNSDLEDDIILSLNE
row,Variant,effect of a mutation on the interaction
1,MSDPRERIPPGNSGEETIGEAFDWLDRTVEEINRAAVNHLPRELIFQVWRRSWEYWHDEMGMSVSYTKYRYLCLIRKAMFMHCKKGCRCLGGEHGAGGWRPGPPPPPPPGLA,disrupting interaction

# Variants of: B2
# Details: with dcaf1_human DCAF1, Q9Y4B6
# Target sequence in this assay (Q9Y4B6 whole entry): as the sequence (Q9Y4B6 whole entry) above
row,Variant,effect of a mutation on the interaction
1,MTDPRERVPPGNSGEETIGEAFEWLDRTIEALNREAVNHLPRELIFQVWQRSWRYWHDDQGMSPSYTKYRYLCLMRKAVFIHFKRGCTCLGGGHGPGGWRSGPPPPPPPGLV,disrupting interaction
